From patent US20200223906A1 (Adimab, published 2020) come the findings set out here.

Test [1] deals with T1, RSV F subtype B, furin-cleaved ectodomain stabilized in the prefusion conformation (DS-Cav1) (Respiratory syncytial virus subtype B).
T1 construct: extracellular domain; Trimeric soluble antigen; also called Prefusion subtype B
As to the kind of experiment: BLI, IgG on AHQ sensor, 100 nM antigen.

Test [2] addresses T2, RSV F subtype B, furin-cleaved ectodomain stabilized in the postfusion conformation (F ΔFP) (Respiratory syncytial virus subtype B).
T2 construct: extracellular domain; Trimeric soluble antigen; also called Postfusion subtype B
As to the kind of experiment: BLI, IgG on AHQ sensor, 100 nM antigen. Background: Biolayer interferometry detects binding as a change in optical thickness at a sensor tip.

Test [3] concerns the target RSV F protein of subtype B (18537) on recombinant mKate-RSV virus (Respiratory syncytial virus subtype B …, UniProt P13843 26-574). The experiment in a line: cell-based or functional assay.
For test [4], the target named is RSV F protein of subtype A (strain A2) on recombinant mKate-RSV virus (Respiratory syncytial virus subtype A …, UniProt P03420 26-574). As to the kind of experiment: cell-based or functional assay.
In test [5] the target is T3, RSV F subtype A, furin-cleaved ectodomain stabilized in the postfusion conformation (F ΔFP) (Respiratory syncytial virus subtype A, UniProt P03420 26-109; P03420 147-524).
T3 construct: extracellular domain; Trimeric soluble antigen; also called Postfusion subtype A
The experiment in a line: BLI, IgG on AHQ sensor, 100 nM antigen.

Where only a bound is given, the exact number is not on record here.

B1: ADI-18887 (antibody, V domains shown)
VH: QVQLVQSGAEVKRPGSSVKVSCKASGGTFSSYALSWVRQAPGQGLEWIGGIIPMHRVTNYAQKFRGRVTISADTSTSTAYLEVNSLRVEDTAMYYCARVFFGTCGGASCFPSDLWGQGTLVTVSS
VL: EIVLTQSPSFVSASVGDGVTITCRASQAISSYLAWYQQKPGQAPKLLIYAASTLQGGVPSRFSGSGSGTHFTLTISSLQPEDFATYYCQQLHSDFQTFGPGTKVEIK
notes: full-length IgG from yeast; also called Antibody Number 242; Ab # 242
By Kd is commonly meant the concentration at which binding is half-saturated. Consider B1, for which the values for the Kd in test [1] and in test [2] were 12200 pM and 549 pM, respectively. Further, the “Neut IC50 (µg/ml) subtype B” value in test [3] is over 10 µg/mL. The “Neut IC50 (µg/ml) subtype A” value in test [4] is 1.11 µg/mL.

B2: ADI-18911 (antibody, V domains shown)
VH: QVQLVESGAEARKPGESLKISCKASGYSFTNYWIGWVRQMPGKGLEWMGVIYPADSDTRYSPSFKGQVTISADKSISTAYLQWTRLKASDTAVYFCARLGIGAAARNYWGQGTLVTVSS
VL: DIQVTQSPSSLSASVGDRVTITCQASQDISDSLNWYQQKPGKAPNLLIYDASKSETGVPSRFSGSGSGTDFTFTISSLQPEDLATYYCLQFDNLPPTFGQGTRLEIK
notes: full-length IgG from yeast
For B2, the values for the dissociation constant Kd in test [5] and in test [2] were 353 pM and 280 pM, respectively. In addition, the “Neut IC50 (µg/ml) subtype B” value in test [3] is 4.85 µg/mL. For the same molecule, the “Neut IC50 (µg/ml) subtype A” value in test [4] was 0.301 µg/mL.

B3: ADI-18970 (antibody, V domains shown)
VH: QVQLQESGPRLVKPSQTLSLTCTVSGGSISSGDYYWSWIRQPPGKGLEWIGYIYYSGSTHYNPSLKSRVSMSVDTAKNQFSLKLTSVTAADTAVYYCARDIGYGDHGTGSYYYGIEDWGQGTTVTVSS
VL: DIVMTQTPATLSLSPGDRATLSCRASQNIMSYLAWYQHKPGQPPRLLIYDASYRAAGIPARFSGSGSGTDFTLTISSLEPEDFAVYYCQQRTNWITFGQGTRLEIK
notes: full-length IgG from yeast; also called Antibody Number 318; Ab # 318
As for B3, the Kd was 445 pM in test [1] and 412 pM in test [2]. The “Neut IC50 (µg/ml) subtype B” value in test [3] stood at 0.333 µg/mL. Also, the “Neut IC50 (µg/ml) subtype A” value in test [4] is over 10 µg/mL.

B4: ADI-18933 (antibody, V domains shown)
VH: QVQLVESGAEVKKPGASVKVACTASGYAFTNYNIHWVRLAPGQGLEWMAIINPGSGGTDYSEKFQGRLTLTSDTSTSTVYMTLGSLRYEDTAFYYCARRGYPDSGSYPLDYWGQGTLVTVSS
VL: DIVMTQSPSSLSASLGDRVTITCRAGRSIATYLNWYQQKPGKAPKLLIYGASSLQSGVPSRFSGSGSGTHFTLTISSLQPEDFATYYCQQSYIRPITFGGGTKVEIK
notes: full-length IgG from yeast
With B4, the Kd in test [5] was determined as 20000 pM; in test [2], 616 pM. In test [3], the “Neut IC50 (µg/ml) subtype B” value was found to be 0.137 µg/mL. Besides, the “Neut IC50 (µg/ml) subtype A” value in test [4] is 0.075 µg/mL.

B5: ADI-18976 (antibody, V domains shown)
VH: EVQLVETGPGLVKPSETLSLTCTVSGDSISGYYWSWIRQSPGKGLEWIGYIYYRGSTDYNPSLKSRVTISVDTSKNQFSLKLSSVTAADTAVYYCARDNKHHDSGNYYAYFDHWGQGTLVTVSS
VL: DIVMTQSPSSLSASVGDRVTITCRASQNINTFLNWYQHKPGKAPKLLIYGASRLQSGVPSRFTGSGSGTDFTLTISSLQPEDFATYSCQQSYTTRLTFGGGTKVEIK
notes: full-length IgG from yeast
On to B5, for which the dissociation constant (Kd) in test [1] came out at 1240 pM; in test [2], 209 pM. The “Neut IC50 (µg/ml) subtype B” value in test [3] was 10.6 µg/mL. The “Neut IC50 (µg/ml) subtype A” value in test [4] worked out at 6.29 µg/mL.

B6: ADI-18897 (antibody, V domains shown)
VH: EVQLVESGGGLVQPGGSLRLSCAASGFTIGTYWMSWVRQAPGKGLEWVANIKPDGSEQYYGDSVKGRFTISRDNAKNSLYLQMHSLRAEDAAVFYCARDTPDVLRHLEWPPVGAFDIWGQGTTVTVSS
VL: EIVMTQSPDSLAVSLGERATINCKSSQSLFYSSTNQHYLAWYQQKPGQPPELLIYWASIRESGVPDRFSGSGSGTDFTLTISSLQAADVAVYYCQQYYSSPQTFGQGTKVEIK
notes: full-length IgG from yeast
For B6, the results for the Kd in test [1] and in test [2] were 1530 pM and 185 pM, respectively. In test [3], the “Neut IC50 (µg/ml) subtype B” value is 0.762 µg/mL. The “Neut IC50 (µg/ml) subtype A” value in test [4] came out at 0.288 µg/mL.

B7: ADI-18885 (antibody, V domains shown)
VH: EVQLQESGPGLVKPLQTLSVTCSVSGGSISSGDNYWSWIRQRPGKGLEWIGYIYYSGTTYYNPSLKSRVTISADRSKNQFSLKMNSLSAADTAVYYCARDGGYDHIWGTHRYFALWGQGTLVTVSS
VL: ETTLTQSPGTLSLSPGERATLSCRASQSVNSDYLAWYQQKLGQAPRLLIYGVSNRATGIPDRFTGSGSGTDFTLTISRLEPEDFAVYHCQQYGTSPWTFGQGTKVEIK
notes: full-length IgG from yeast; also called Antibody Number 241; Ab # 241
Take B7: the results for the Kd in test [1] and in test [2] were 3890 pM and 307 pM, respectively. Further, the “Neut IC50 (µg/ml) subtype B” value in test [3] was found to be 8.63 µg/mL. Further, in test [4], the “Neut IC50 (µg/ml) subtype A” value was 0.376 µg/mL.

B8: ADI-18973 (antibody, V domains shown)
VH: QVQLVQSGPALVKPTQTLTLTCTFGGFSLSRHGMRVTWIRQAPGKALEWLGHIDWDDDKFYRTSLKTRLTISKDPSNNEVVLKMTNMDHVDTATYYCALMRPFWSRDDYYYSIAVWGKGTTVTVSS
VL: DIVLTQSPGTLSLSPGDRATLSCRASQSVGSGYVTWYQQKPGQAPRLLIYGASNRAEGIPDRFSGSGSGTDFTLTISGLESEDFVIYYCQLYHRSPGSASQTVWTFGQGTKVEIK
notes: full-length IgG from yeast
Take B8: the figures for the Kd in test [1] and in test [2] were 2630 pM and 394 pM, respectively. For the same molecule, the “Neut IC50 (µg/ml) subtype B” value in test [3] stood at 6.27 µg/mL. In test [4], the “Neut IC50 (µg/ml) subtype A” value was 9.61 µg/mL.

B9: ADI-18878 (antibody, V domains shown)
VH: QVQLQESGPRLVKPSQTLSLICDVSGGSIGSGDHYWSWIRQPPGKGLEWIGYIYYSGTTYYNPSLKSRVTISADTSKNQLSLKLSSVTAADTAIYFCARDGGYDHVWGTHRYFDKWGQGTLVTVSS
VL: EIVLTQSPGTLSLSPGERATLSCRASQSVSNSYLAWYQQKPGQAPRLLIYGVSTRATGIPDRFSGSGSGTDFTLTISRLEPEDFAMYHCQQYGASPWTFGQGTKVDIK
notes: full-length IgG from yeast; also called Antibody Number 235; Ab # 235
As for B9, the Kd was 5820 pM in test [1] and 388 pM in test [2]. In addition, the “Neut IC50 (µg/ml) subtype B” value in test [3] is 8.31 µg/mL. Further, the “Neut IC50 (µg/ml) subtype A” value in test [4] is over 10 µg/mL.

B10: ADI-18909 (antibody, V domains shown)
VH: QVQLQESGPGLVKPSQTLSLTCTVSGRFLNSGDYYWSWIRQSPGKGLEWLGYIHHSGNTYYNPSLKSRLTISLDMSKNQFSLKLSSVTAADTAVYYCARDLGKPLWDGHYYYGVDVWGQGTTVTVSS
VL: DIVMTQSPGTLSLSPGERATLSCRTSQNVNSNYLAWYQHKPGQAPRLLIYGASSRVTGIPDRFSGSGSGTDFTLTITRVESEDFAVYYCQVYSSSPPITFGQGTKVEIK
notes: full-length IgG from yeast; also called Antibody Number 264; Ab # 264
As for B10, the figures for the dissociation constant Kd in test [1] and in test [2] were 288 pM and 225 pM, respectively. In addition, the “Neut IC50 (µg/ml) subtype B” value in test [3] came out at 0.169 µg/mL. In test [4], the “Neut IC50 (µg/ml) subtype A” value worked out at 0.11 µg/mL.

B11: ADI-18895 (antibody, V domains shown)
VH: QVQLVQSGPEVKKTRESLKIYCKGSGYSFISHWIGWVRQKPGKGLEWMGIIYPGDSDTRYSPSFQGQVAISADKSINTAYLQWSSLKSSDTAIYYCASVMLRGIMWGQGTLVTVSS
VL: DIRLTQSPSSLSASVGDRVTITCQASQDISKYLNWYQQKPGKAPKLLIYDASNLETGVPSRFSGSGSGTDFTFTISSLQPEDIATYYCQPYDNLPPPLTFGGGTKLEIK
notes: full-length IgG from yeast; also called Antibody Number 250; Ab # 250
Regarding B11, the Kd in test [5] stood at 2370 pM; in test [2], 486 pM. Also, the “Neut IC50 (µg/ml) subtype B” value in test [3] is over 10 µg/mL. In test [4], the “Neut IC50 (µg/ml) subtype A” value worked out at 2.3 µg/mL.

B12: ADI-18941 (antibody, V domains shown)
VH: EVQLVESAAEVKKPGESLKISCKGSGYSFASHWIGWVRQMPGKGLELMGFIYPGDSDTRYNPSFQGQVTISADKSISTAYLQWTRLKASDTAMYYCGQAVAGGEYFHHWGQGTLVTVSS
VL: DIVMTQSPATLSVSPGERATLSCRASQSLGSDLAWYQQKPGQTPRLLIYDASTRATGIPARFSGSGSGTEFTLTISSLQSEDFAVYYCQHYNNWPRGFGQGTKVEIK
notes: full-length IgG from yeast
Turning to B12, the figures for the dissociation constant (Kd) in test [5] and in test [2] were 19100 pM and 645 pM, respectively. Besides, the “Neut IC50 (µg/ml) subtype B” value in test [3] is over 10 µg/mL. Further, the “Neut IC50 (µg/ml) subtype A” value in test [4] was over 10 µg/mL.
